US20240067738A1 (ELANCO US, published 2024)

Legend:
[1] = target: Human IL4R-ECD_C-HuFc_His6 (processed) (human); assay: Western blot, non-reducing
[2] = target: T1, Canine/Human IL4R-ECD_C-HuFc_His6 Hybrid 6 (canine/human hybrid); assay: Western blot, non-reducing
T1 construct: Canine G1-N55 and P110-P204; human N56-H109

[3] = target: T2, Canine/Human IL4R-ECD_C-HuFc_His6 Hybrid 1 (canine/human hybrid); assay: Western blot, non-reducing
T2 construct: Canine G1-N55, human N56-H209, human Fc-His6; Tested as 3-fold concentrated 293 supernatant
T2 sequence (chain, as listed by the source limits assumed): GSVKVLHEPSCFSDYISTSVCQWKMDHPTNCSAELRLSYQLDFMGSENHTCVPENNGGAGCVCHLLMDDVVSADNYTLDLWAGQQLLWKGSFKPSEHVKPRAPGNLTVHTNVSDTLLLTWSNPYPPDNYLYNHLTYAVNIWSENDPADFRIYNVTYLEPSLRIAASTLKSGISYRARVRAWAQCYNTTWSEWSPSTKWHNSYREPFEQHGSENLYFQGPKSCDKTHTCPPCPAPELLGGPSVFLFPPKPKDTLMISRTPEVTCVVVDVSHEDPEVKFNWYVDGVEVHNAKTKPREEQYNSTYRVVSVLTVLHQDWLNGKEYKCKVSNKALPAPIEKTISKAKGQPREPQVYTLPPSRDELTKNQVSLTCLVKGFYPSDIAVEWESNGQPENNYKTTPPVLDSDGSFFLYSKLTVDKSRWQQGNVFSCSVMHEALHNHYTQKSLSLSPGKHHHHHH

[4] = target: T3, Canine/Human IL4R-ECD_C-HuFc_His6 Hybrid 13 (canine/human hybrid); assay: Western blot, non-reducing
T3 construct: Canine G1-S89 and P110-P204; human G90-H109
T3 sequence (chain, as listed by the source limits assumed): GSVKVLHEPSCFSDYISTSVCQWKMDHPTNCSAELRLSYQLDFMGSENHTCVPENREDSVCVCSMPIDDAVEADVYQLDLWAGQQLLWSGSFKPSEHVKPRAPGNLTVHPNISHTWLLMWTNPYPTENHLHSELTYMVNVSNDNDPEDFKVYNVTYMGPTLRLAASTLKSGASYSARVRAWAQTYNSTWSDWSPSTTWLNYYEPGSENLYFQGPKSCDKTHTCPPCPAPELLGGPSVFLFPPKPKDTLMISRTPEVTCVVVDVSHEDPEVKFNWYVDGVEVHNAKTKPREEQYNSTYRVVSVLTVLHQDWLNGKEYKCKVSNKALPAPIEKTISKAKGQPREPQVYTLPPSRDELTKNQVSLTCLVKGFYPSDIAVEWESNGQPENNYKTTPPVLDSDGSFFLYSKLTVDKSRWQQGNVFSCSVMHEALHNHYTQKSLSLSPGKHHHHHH

[5] = target: Murine IL4R-ECD_C-HuFc_His6 (processed) (murine); assay: Western blot, non-reducing
Sequence of Murine IL4R-ECD_C-HuFc_His6 (processed) (murine) (chain, as listed by the source limits assumed): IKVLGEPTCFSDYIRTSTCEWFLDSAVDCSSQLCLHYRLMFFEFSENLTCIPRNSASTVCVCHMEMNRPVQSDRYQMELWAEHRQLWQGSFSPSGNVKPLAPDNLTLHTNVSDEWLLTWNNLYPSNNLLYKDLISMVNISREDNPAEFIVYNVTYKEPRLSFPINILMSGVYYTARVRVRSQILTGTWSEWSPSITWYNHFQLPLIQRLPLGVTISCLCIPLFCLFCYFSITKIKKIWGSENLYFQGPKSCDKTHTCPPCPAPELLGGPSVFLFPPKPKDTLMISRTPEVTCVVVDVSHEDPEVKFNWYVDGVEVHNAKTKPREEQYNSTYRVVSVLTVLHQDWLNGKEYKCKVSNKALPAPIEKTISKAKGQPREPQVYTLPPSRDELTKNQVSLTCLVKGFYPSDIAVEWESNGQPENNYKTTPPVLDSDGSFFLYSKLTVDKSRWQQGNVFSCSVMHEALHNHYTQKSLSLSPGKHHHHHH

[6] = target: Equine IL4R-ECD_C-HuFc_His6 (processed) (equine); assay: Western blot, non-reducing
Sequence of Equine IL4R-ECD_C-HuFc_His6 (processed) (equine) (chain, as listed by the source limits assumed): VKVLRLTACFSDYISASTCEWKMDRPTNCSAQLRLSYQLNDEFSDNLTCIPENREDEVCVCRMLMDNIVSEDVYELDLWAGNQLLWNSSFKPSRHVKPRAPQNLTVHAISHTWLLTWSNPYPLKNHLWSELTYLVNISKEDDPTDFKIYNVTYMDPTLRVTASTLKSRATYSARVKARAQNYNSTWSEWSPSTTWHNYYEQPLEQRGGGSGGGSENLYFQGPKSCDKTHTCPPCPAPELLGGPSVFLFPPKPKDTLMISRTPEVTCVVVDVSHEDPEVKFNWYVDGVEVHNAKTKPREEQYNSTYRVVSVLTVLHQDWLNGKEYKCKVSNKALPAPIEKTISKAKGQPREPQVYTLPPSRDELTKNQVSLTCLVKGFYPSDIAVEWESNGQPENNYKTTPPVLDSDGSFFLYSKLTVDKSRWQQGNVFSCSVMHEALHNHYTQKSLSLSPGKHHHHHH

[7] = target: Feline IL4R-ECD_C-HuFc_His6 (processed) (feline); assay: BLI (Octet), biotinylated feline IL4R-ECD_C-HuFc_His6 on streptavidin tips, antibody 25 µg/mL, 1:1 fit
Sequence of Feline IL4R-ECD_C-HuFc_His6 (processed) (feline) (chain, as listed by the source limits assumed): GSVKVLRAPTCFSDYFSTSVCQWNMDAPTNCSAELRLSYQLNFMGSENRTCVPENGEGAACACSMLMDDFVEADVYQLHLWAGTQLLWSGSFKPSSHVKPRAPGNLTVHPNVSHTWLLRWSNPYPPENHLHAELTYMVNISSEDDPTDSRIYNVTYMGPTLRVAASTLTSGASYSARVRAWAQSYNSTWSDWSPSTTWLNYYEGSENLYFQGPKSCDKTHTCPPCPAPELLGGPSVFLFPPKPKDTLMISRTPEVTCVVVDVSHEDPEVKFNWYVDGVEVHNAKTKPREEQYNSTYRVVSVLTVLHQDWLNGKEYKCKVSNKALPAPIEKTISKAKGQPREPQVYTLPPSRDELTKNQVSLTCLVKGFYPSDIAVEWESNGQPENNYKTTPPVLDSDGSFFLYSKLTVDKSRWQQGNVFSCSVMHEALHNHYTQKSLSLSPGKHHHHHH
Description: This finding was consistent with in vitro binding affinity measured by Octet Biosensor. Biotinylated feline IL4R-ECD_C-HuFc_His6 (SEQ ID NO: 111) was captured on streptavidin sensor tips. The association of Clone I antibody (25 μg/mL) and feline IL4R-ECD_C-HuFc_His6 was monitored for 600 seconds. Dissociation was monitored for 600 seconds. A buffer only blank curve was subtracted to correct for any drift. The data were fit to a 1:1 binding model using ForteBio™ data analysis software to determine the kₒₙ, koff, and the Kd. The buffer for dilutions and all binding steps was 20 mM phosphate, 150 mM NaCl, pH 7.2.

T1 sequence (chain, as listed by the source limits assumed): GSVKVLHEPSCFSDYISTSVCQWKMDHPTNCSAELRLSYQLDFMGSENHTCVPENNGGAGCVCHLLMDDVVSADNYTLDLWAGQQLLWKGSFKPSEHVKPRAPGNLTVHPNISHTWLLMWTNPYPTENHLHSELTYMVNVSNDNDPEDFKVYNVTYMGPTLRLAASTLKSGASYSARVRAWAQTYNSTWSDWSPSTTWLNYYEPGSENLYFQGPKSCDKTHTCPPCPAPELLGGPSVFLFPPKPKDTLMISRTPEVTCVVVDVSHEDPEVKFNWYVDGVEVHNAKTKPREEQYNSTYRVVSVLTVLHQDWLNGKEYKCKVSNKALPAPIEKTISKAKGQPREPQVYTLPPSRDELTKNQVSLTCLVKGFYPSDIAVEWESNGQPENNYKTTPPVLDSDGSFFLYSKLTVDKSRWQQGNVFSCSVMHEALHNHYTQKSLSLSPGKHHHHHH
Sequence of Human IL4R-ECD_C-HuFc_His6 (processed) (human) (chain, as listed by the source limits assumed): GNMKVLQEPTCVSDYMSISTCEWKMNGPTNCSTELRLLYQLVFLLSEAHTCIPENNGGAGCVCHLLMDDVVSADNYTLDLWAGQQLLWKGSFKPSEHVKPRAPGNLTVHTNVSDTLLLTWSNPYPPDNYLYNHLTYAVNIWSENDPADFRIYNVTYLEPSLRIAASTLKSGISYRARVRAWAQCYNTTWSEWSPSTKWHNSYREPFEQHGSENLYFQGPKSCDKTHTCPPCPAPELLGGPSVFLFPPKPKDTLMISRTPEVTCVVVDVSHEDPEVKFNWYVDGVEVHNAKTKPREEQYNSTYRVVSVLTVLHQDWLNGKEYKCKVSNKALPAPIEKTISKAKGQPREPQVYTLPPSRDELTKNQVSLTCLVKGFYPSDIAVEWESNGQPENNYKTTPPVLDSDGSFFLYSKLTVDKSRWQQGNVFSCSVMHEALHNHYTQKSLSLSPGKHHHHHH

B1: Clone I mouse monoclonal antibody (antibody, mouse IgG1, kappa, V domains shown)
VH: EVQLQQSGPELVKPGASVKMSCKASGYTFTSYVMHWVKQKPGQGLEWIGYINPNNDGTFYNGKFKGKATLTSDKSSSTAYMELSSLTSEDSAVYYCAAFYYGFAYWGQGTLVTVSA
VL: DIVLTQSPSSLSASLGERVSLTCRASQEISGYLSWLQQKPDGTIKRLIYAASTLDSGVPKRFSGSRSGSDFSLTISSLESEDFADYYCLQYASYPWTFGGGAKLEIKR
notes: also called Clone I antibody; anti-IL4R-mAb Clone I
[1]
  binding result: no binding (tested: Clone I 0.3 µg/mL; 0.1 µg/lane)
[2]
  binding result: binds
[3]
  binding result: binds
[4]
  binding result: binds
[5]
  binding result: no binding (tested: Clone I 0.3 µg/mL; 0.1 µg/lane)
[6]
  binding result: no binding (tested: Clone I 0.3 µg/mL; 0.1 µg/lane)
[7]
  Kd: 1.1 nM
